Data: the supplement of paper PMC12042874
± gives the uncertainty stated by the source.

Assay: amyloid nucleation score (Sup35N fusion, yeast selection) (log enrichment); library NNK3; higher = more nucleation; inactive = no reads after selection
Outline: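 Output and input plasmid inserts were sequenced by Illumina after psi-negative yeast carrying Sup35N fused to peptides of 20 random codons had been induced 24 hours with 100 μM copper sulfate and grown 7 days at 30°C on medium lacking adenine and uracil. The nucleation score is the DiMSum log enrichment of output over input reads, centred on the mode score of non-aggregating sequences. Sequences with under 100 input reads were excluded.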

Row | Substance | amyloid nucleation score
1 | KQVNWS | inactive
2 | RLFYCVSAVRIHVCGNSKLF | inactive
3 | KPISRRGWPRPKAGRNEPPR | inactive
4 | IDCGGFDDIRVVSGDDEKMW | inactive
5 | SSMWCMDRSLYTNYEYQRVL | 0.054 ± 0.36
6 | LPICVVMDKRFCTIVISSST | inactive
7 | EEDKLFCGVMWQFG | inactive
8 | NLKSWFFCIVHCIRLHASVN | inactive
9 | SREFSGCNNV | inactive
10 | KWTSCSYPH | inactive
11 | DRMKATVQLDFG | inactive
12 | WCCLETRLYL | 1.5 ± 0.1
13 | CYPFLWYCPNVCTVVSFDK | 2.46 ± 0.062
14 | SGLIQNTRR | -0.428 ± 1.1
15 | DKSDQSSRRFSGTRAYFSTM | inactive
16 | LCFNCGVFCFFFRVGETTNW | 2.84 ± 0.056
17 | SVYCSCISFGPTSKILVIMD | 2.34 ± 0.088
18 | YLYGGQRVGSF | inactive
19 | WIYGYAVSLRSLYGLNLSM | inactive
20 | TVRGYRLAHYIAAGYSCMSR | inactive
21 | SIILVYKLE | inactive
22 | SFNSNSDDDIIFDALNYTLN | 0.069 ± 0.62
23 | YSVAVREIVGMNSKLLCDVN | inactive
24 | NILLND | inactive

Row | Substance | amyloid nucleation score
25 | DVMRVWFTEYSMSTTVGMAV | inactive
26 | CRACGRWCNSSYIYIY | inactive
27 | HGWSS | inactive
28 | TFGFRNRYFELLSVVIRHLA | inactive
29 | PVSYVLEEVEPRVRVSGPSG | inactive
30 | AYSVSRSALRSEANRIGSR | inactive
31 | FSLHNRGFMIQHKRVLEDGA | inactive
32 | VNESMNDIANRSDEGYFGCA | inactive
33 | DGKGPMVYSGMCCRTFRGLV | inactive
34 | RSRDIGVFTGVQCLVRYRRY | inactive
35 | DRLRYNLWS | inactive
36 | SGIAGECFAM | inactive
37 | YIRVVNAPVCTGNCLQDAYL | inactive
38 | NFQNSVLFNMV | inactive
39 | KPRSC | inactive
40 | LSLAVKVIVKG | inactive
41 | RYRNIYC | inactive
42 | IYSNSPDRPEFHCNSRCGDG | inactive
43 | IVFLLLVRLLVFIP | inactive
44 | VLVESDLSVIATVSGLLCAR | inactive
45 | YDSVNLSLVLHSKRHYAYCA | inactive
46 | TSFFNNFSLLFVLVWNVLRG | inactive
47 | ILKGL | inactive
48 | YFISRCIWLVKSYREIELRW | inactive

Row | Substance | amyloid nucleation score
49 | SCNSRFMI | -0.082 ± 0.66
50 | SFNLTNSKYWVR | inactive
51 | TVSGNKYISDRVQN | inactive
52 | WLCWQHSDLMNRDCNGLTLG | inactive
53 | DTGFCYKFNYIPVDVIICIC | 1.32 ± 0.12
54 | YMLQVRCSVDLFVLDTMCFL | inactive
55 | PHIGYCMW | inactive
56 | NWAGRLWLTV | inactive
57 | TLLPLQMFTNHWALMPSSHR | 0.125 ± 0.9
58 | GLRVQCWECTIRSFGV | 0.448 ± 0.24
59 | TWYRCD | inactive
60 | SSGNMCFYPAPGYYWIATSK | inactive
61 | VFKFVLLSLYMFQWGNAFPM | inactive
62 | FIQYEHNLPGTARGKCIQC | inactive
63 | CLIVTLTHMS | 1.64 ± 0.062
64 | TLHWCMVSNHRAKCYCLFET | 0.472 ± 0.42
65 | KVFPFEVEVLFFHGGDMSCG | -0.121 ± 0.36
66 | MPFPVGNFHQGDNMNVSQCG | 0.61 ± 0.12
67 | ACSRGKCFTNRGSRWHLFVC | inactive
68 | VTVIYNVDYCKETIFQMVVT | 0.124 ± 0.48
69 | FGTVAWPITFIIRMAVGSSC | 0.936 ± 0.15
70 | GPLRVPVMMGCWRRIDRMPW | inactive
71 | GEKIDRVM | inactive
72 | YYTSYIAGNLAFNTSKFRKM | -0.347 ± 0.7

Row | Substance | amyloid nucleation score
73 | PWRRDKSGVVLSWDAISFAW | inactive
74 | YRIGCRF | inactive
75 | RTYARYSMVGRLTMTSTRCE | inactive
76 | RYVQLCADYSHGF | inactive
77 | CASTDKNPFLPVNAAITYGL | inactive
78 | CAPLSVVWNSRGFM | inactive
79 | RFLRRIIDIVMGQSGNWMIR | inactive
80 | AEWLSCLRWIGK | inactive
81 | IGYTRLLFLMDVTVGIRVGW | inactive
82 | MRTRGQTFTWGHYGCLLIDE | inactive
83 | LIYMLCYFRLLPTCGQVINR | inactive
84 | CFCLSRL | inactive
85 | FFIDYIHTYRYESSASMS | inactive
86 | LNNSTSCEVGKNVCISFKWA | 2.22 ± 0.089
87 | QRCCP | inactive
88 | VLLFI | inactive
89 | VLRKARVVIRSYSMEVRFRS | inactive
90 | HSRWMAFPWMLGPLLLNRNL | inactive
91 | NLCVMPRTTGPLS | inactive
92 | LVFSTSLH | inactive
93 | ANECDGVYNGAKCSRWNFLL | inactive
94 | YSRGV | inactive
95 | FVYSCNC | 2.34 ± 0.08
96 | ASKENCLIVFIVYQSIIETC | inactive

Row | Substance | amyloid nucleation score
97 | FTPLCSNVAGRNMEQYCS | inactive
98 | TPLGSQLALESDFFYTPNRC | inactive
99 | PFHGCPTHDCFNAGILALTV | inactive
100 | VTNRIGLV | inactive
101 | RRWSLRWNHLM | inactive
102 | LVWWDGSEWTTWGVADIDWT | inactive
103 | ISTLGYFAELVI | inactive
104 | PKNLFISRLPL | inactive
105 | SFMYVCNLLLSSWSCP | 1.83 ± 0.063
106 | SVDGDLAEDNMLMVSFSIGK | 0.128 ± 0.54
107 | IMMMNLKM | 1.92 ± 0.079
108 | DMATVIVSKLFTVVVWYLFW | inactive
109 | FSGRFHMENTMYHTIYKIKS | inactive
110 | VNQVVM | inactive
111 | GTNIFVKTDTYCPFICST | inactive
112 | RIKCMEIFERPCYFLFCLHK | inactive
113 | LCVDVS | inactive
114 | ILISFNQLKP | 1.18 ± 0.13
115 | VYVMRGSVIWLCRMSMGCCA | inactive
116 | LVLYYCVTG | inactive
117 | SVNPAKHVMCKRAPGCGKLH | inactive
118 | IVVANMWLLKKNYLRMELFA | inactive
119 | LIGSGV | inactive
120 | GCLEFGVMEFPGEDEFNFLG | inactive

Row | Substance | amyloid nucleation score
121 | NISLELDVFCTTNNMG | 1.74 ± 0.089
122 | SPFEFRCIVESEFCMKNWAG | 0.866 ± 0.25
123 | LICYLYAKMC | inactive
124 | DNSGVSVQLRKVSESGSA | inactive
125 | MYRCNVGLLGVFPRCNPYDA | inactive
126 | YASVRVGMPSCDECGMFCLE | inactive
127 | LSVHTLHNG | inactive
128 | FSAIRVLYSVKTELDSNNMY | 0.822 ± 0.24
129 | LWTALK | inactive
130 | VMCFYRLLNVIQWTTANVFG | inactive
131 | VAIGYIASVLK | inactive
132 | IMDDTSQSNRCYYEKVLCRG | 1.34 ± 0.092
133 | YQRLHSL | inactive
134 | YLWPLFFSFE | inactive
135 | RRFGAFCIVPFERIVLDGWE | inactive
136 | SVNTLLALRV | inactive
137 | GILRQRIYFSM | inactive
138 | VFVVLLALSYGSDNTV | inactive
139 | FDWIQDHSQCGIIFTCVKLG | inactive
140 | SFSYWGKDRSRVSNL | inactive
141 | YFKNGNALCKAFKKRISRKD | inactive
142 | IWVGRTDFWFWHVTGEDCLG | inactive
143 | MYWLHYKVHNYNSCVI | inactive
144 | HLTHFQQILRFNKAETCVRT | inactive

Row | Substance | amyloid nucleation score
145 | SSTTE | inactive
146 | ESVNGTSFPVFIYHRTSFRL | 1.61 ± 0.069
147 | RVIATRDDCPFLGW | inactive
148 | ARTIELMECNISVNSIVWQG | 1.98 ± 0.089
149 | YSMIKFSISAD | inactive
150 | VLIMYKSGRYVIGSLVLMCL | inactive
151 | NSQRASCSSLTYRSELYGNS | inactive
152 | RNTMSFNDSFTNALLLKSVG | inactive
153 | TLLYERNEYVVRNTYWDICL | inactive
154 | SENVYPCALKRSKGMLIRMV | inactive
155 | QKIPRDDEPMANQDRLSKIS | inactive
156 | IRSYERVSRLTGVVGSTSVD | inactive
157 | KDVSMLSTVTRTPRMRRVST | inactive
158 | IVGAAVRGKMRFSMSRAWLG | inactive
159 | VMVCFG | inactive
160 | IVYGPCYTLYVRCSVFSLSK | 2.31 ± 0.063
161 | CMVSYASDTGGKESELACVV | inactive
162 | YKSDSLLRSSLLTELTPIHF | inactive
